The record followed here is the RNAGym collection of RNA variant scans (doi:10.7554/elife.80360).

Sequences and labels used below:
B1: Hairpin Ribozyme (parent)
chain: GUCCUCUUUCACGUGCGCGUGAAAGAGAGAAGUGAACCAGAGAAACACACGUUGUGGUAUAUUACCUGGUA

Variants of B1 are the subject of this data set. As to the kind of experiment: self-cleavage, relative activity (ratio to wild type); higher = more cleavage; co-transcriptional.
As to U7C G57A, the self-cleavage was 0.153.
For A30G G68C the value was 0.132; for C38G G54U, 0.0948; for U5C A71G, 0.389.
Turning to G25C G40U, the self-cleavage was found to be 0.12.
For U2A G54U the value was 0.119; for A39U U67G, 0.371.
For A24U G69A the value was 0.327; for C10G A31U, 0.084.
For A45U G56A the value was 0.166; for A24C C66U, 0.395.
For the variant G54U A64C, the self-cleavage stood at 0.128.
For G21C G25U, the self-cleavage worked out at 0.399.
On to G29C G51A, for which the self-cleavage was 0.125.
Next, G25U U63C: 0.184.
Next, A24C G34U: 1.43; G17A C18G: 1.15.
On to C38U G40U, for which the self-cleavage amounted to 0.101.
For C37G G68C the value was 0.131; for A23U U53C, 0.935; for A24C A30G, 0.201.
For U9G A30U the value was 0.0546.
For U63A G68A the value was 0.276; for C37U U62A, 0.165.
Take C3A G57A: the self-cleavage was determined as 0.131.
Take A59U G68C: the self-cleavage amounted to 0.0787.
For U60C U62G, the self-cleavage worked out at 0.155.
C16A G69C: the self-cleavage came to 0.205.
As to A41U G68C, the self-cleavage is 0.262.
For C16G C48U the value was 0.154; for A41C C66A, 0.214.
Consider U14C A44C, for which the self-cleavage was 0.241.
For C10G A24G the value was 0.63; for A41C A44C, 0.0994; for U9A A71U, 0.525.
For U7A A44U the value was 0.117.
For U5A A30G the value was 0.119; for U9A A41U, 0.786; for C4G G19U, 0.225.
As to C10A G54U, the self-cleavage is 0.426.
For C12U C18G the value was 0.832; for G1U C66G, 0.117.
Regarding C16U A45C, the self-cleavage came out at 0.066.
Next, A22C C46G: 0.187; A11U C18U: 1.12; A31U C46G: 0.212.
On to C4U U33C, for which the self-cleavage was 0.237.
For G13U G15A, the self-cleavage is 0.491.
On to U9G U53C, for which the self-cleavage was 0.736.
For G34A G42C, the self-cleavage came to 0.516.
Next, A23U U63C: 0.182; A23U U63A: 0.142; C10U A35G: 0.689.
In the case of U2A G19A, the self-cleavage turned out to be 0.216.
Next, U2A G19C: 0.106; G13U A64U: 0.147.
As for A23U A44C, the self-cleavage was determined as 0.133.
Next, G19C A28G: 1.15; G13C U14A: 0.688.
For G25C C38U the value was 0.263; for U5C G68A, 0.14.
Next, G51A U58C: 1.09; A59G U60G: 0.311.
For the variant G54C U70G, the self-cleavage was found to be 0.155.
On to U20C A61C, for which the self-cleavage is 0.138.
Next, A11G U33G: 0.131.
Consider C16U G34U, for which the self-cleavage came out at 0.885.
As for A31C U63G, the self-cleavage was found to be 0.119.
As for U14A A47U, the self-cleavage was 0.143.
Next, A30G G57C: 0.0397.
In the case of A41G G69A, the self-cleavage amounted to 0.411.
For C4U A36C the value was 0.145; for A47G A61C, 0.132.
G57U U70A: the self-cleavage turned out to be 0.266.
Regarding C3G U55A, the self-cleavage was 0.0814.
Next, U14A G15U: 1.17; G29C U70C: 0.133.
For A35U C48A the value was 0.186; for G54C C65A, 0.194.
For C16A A71G the value was 1.04; for G56C U67G, 0.203; for G1C C12G, 0.188.
On to A23C G40C, for which the self-cleavage was 0.0333.
Next, U8A U20A: 0.479; C6U U53C: 0.704.
Turning to U58A U67A, the self-cleavage was found to be 0.273.
In the case of A23G G34C, the self-cleavage came to 1.07.
For U9G A44G the value was 0.129.
Next, C12A G27A: 0.378.
For A47G C66A the value was 0.138; for A35U U58A, 0.464.
In the case of A47G U55C, the self-cleavage is 0.207.
Regarding C10U C65G, the self-cleavage turned out to be 0.284.
For G1A A22C the value was 0.11; for G42A A64C, 0.129.
G27A G34A: the self-cleavage turned out to be 0.551.
On to G27C A36C, for which the self-cleavage is 0.113.
As to G21C A64G, the self-cleavage was determined as 0.564.
Next, C18U: 1.06; A39C U53A: 0.549; G13U G29U: 0.147.
Turning to A22C A28U, the self-cleavage worked out at 0.504.
As to A24C U52G, the self-cleavage came out at 1.08.
For G19C A36G the value was 0.766; for U7C A23U, 0.694; for C6U A49U, 0.159.
For U2G A28U the value was 0.32.
Next, A45C U55G: 0.0998; U7G A11G: 0.734.
Turning to C4A A24G, the self-cleavage stood at 0.143.
Next, U14G A45U: 0.147; A44C U63C: 0.172; G25U G40C: 0.131.
For G42A A59G the value was 0.264.
Next, U2C U53A: 0.322; A44U A61C: 0.0833.
As to C12A U58A, the self-cleavage worked out at 0.733.
For C38A U63G the value was 0.165; for A45G A49G, 0.177; for U9G U58A, 0.549.
As to G15U A36C, the self-cleavage amounted to 0.839.
Next, G29A G51A: 0.138.
For A30U G57A the value was 0.0986; for A26C U58C, 0.771.
C10U A45C: the self-cleavage was 0.159.
Next, G27A U33G: 0.0835.
Next, C46G G57U: 0.167.
Next, A22C A47G: 0.187; A39G A49G: 0.116.
As for G32U U67G, the self-cleavage is 0.121.
As to G40U U55G, the self-cleavage came to 0.232.
Next, G1U C6G: 0.228.
For C12G U62G, the self-cleavage turned out to be 0.21.
Consider A35U G54U, for which the self-cleavage was 0.455.
Next, U9G U63G: 0.206.
For A23C G29C, the self-cleavage came to 0.126.
For C16A G54C the value was 0.432.
Consider U8A A43C, for which the self-cleavage is 0.153.
As for U2A G17A, the self-cleavage is 0.274.
Next, C3A A49U: 0.0975; C6G C46G: 0.124; G27U A31C: 0.205.
Regarding C12G G54U, the self-cleavage stood at 0.537.
In the case of C12G U63C, the self-cleavage stood at 0.296.
With C37G A44C, the self-cleavage was determined as 0.16.
As to C48A U62A, the self-cleavage turned out to be 0.14.
G21C A35C: the self-cleavage is 0.748.
For U8C A61U the value was 0.182; for G17U U58A, 0.593; for A22U A71C, 1.37.
Next, U2C A61G: 0.0293; G56U U60C: 0.135.
For C10U G15C the value was 0.825; for C18G A30G, 0.131; for G32U A39C, 0.116.
G51C A59G: the self-cleavage was 0.166.
For C50A U58C the value was 0.144.
U20A A47G: the self-cleavage worked out at 0.185.
C18U G34U: the self-cleavage is 1.46.
In the case of U7G A59U, the self-cleavage is 0.116.
Turning to C12G C37U, the self-cleavage amounted to 0.445.
For U20G U55C the value was 0.268; for A41C G51C, 1.16; for A26C A49G, 0.461.
For the variant G15U A59U, the self-cleavage turned out to be 0.0728.
For U14G A28U the value was 0.39.
For U14G U55A the value was 0.0772.
